# From IntAct's records for PubMed 31515488
# B1: Leucine-rich repeat-containing protein 45 (Homo sapiens), Q96CN5 (parent)
# chain: MEEFRRSYSRLCRESGAEPQEAVLQQLHQLPRGRLDLATQSLTVETCRALGKLLPRETLCTELVLSDCMLSEEGATLLLRGLCANTVLRFLDLKGNNLRAAGAEALGKLLQQNKSIQSLTLEWNSLGTWDDAFATFCGGLAANGALQRLDLRNNQISHKGAEELALALKGNTTLQQLDLRWNNVGLLGGRALMNCLPSNRTLWRLDLAGNNIPGDVLRAVEQAMGHSQDRLTTFQENQARTHVLSKEVQHLREEKSKQFLDLMETIDKQREEMAKSSRASAARVGQLQEALNERHSIINALKAKLQMTEAALALSEQKAQDLGELLATAEQEQLSLSQRQAKELKLEQQEAAERESKLLRDLSAANEKNLLLQNQVDELERKFRCQQEQLFQTRQEMTSMSAELKMRAIQAEERLDMEKRRCRQSLEDSESLRIKEVEHMTRHLEESEKAMQERVQRLEAARLSLEEELSRVKAAALSERGQAEEELIKAKSQARLEEQQRLAHLEDKLRLLAQARDEAQGACLQQKQVVAEAQTRVSQLGLQVEGLRRRLEELQQELSLKDQERVAEVSRVRVELQEQNGRLQAELAAQEALREKAAALERQLKVMASDHREALLDRESENASLREKLRLREAEIARIRDEEAQRASFLQNAVLAYVQASPVRTLSPPK
# partner: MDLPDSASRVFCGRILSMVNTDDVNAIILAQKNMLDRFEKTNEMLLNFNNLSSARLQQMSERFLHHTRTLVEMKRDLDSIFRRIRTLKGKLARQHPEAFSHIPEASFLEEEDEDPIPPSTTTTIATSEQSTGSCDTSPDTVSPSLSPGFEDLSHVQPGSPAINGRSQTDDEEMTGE
# B2: Protein NOXP20 (Homo sapiens), Q8IWE2 (parent)
# chain: MSDDAGDTLATGDKAEVTEMPNSDSLPEDAEVHCDSAAVSHEPTPADPRGEGHENAAVQGAGAAAIGPPVQPQDANALEPPLNGDVTEDTLAECIDSVSLEAEPRSEIPLQEQNYLAVDSPPSGGGWAGWGSWGKSLLSSASATVGHGLTAVKEKAGATLRIHGVNSGSSEGAQPNTENGVPEITDAATDQGPAESPPTSPSSASRGMLSAITNVVQNTGKSVLTGGLDALEFIGKKTMNVLAESDPGFKRTKTLMERTVSLSQMLREAKEKEKQRLAQQLTMERTAHYGMLFDEYQGLSHLEALEILSNESESKVQSFLASLDGEKLELLKNDLISIKDIFAAKELENEENQEEQGLEEKGEEFARMLTELLFELHVAATPDKLNKAMKRAHDWVEEDQTVVSVDVAKVSEEETKKEEKEEKSQDPQEDKKEEKKTKTIEEVYMSSIESLAEVTARCIEQLHKVAELILHGQEEEKPAQDQAKVLIKLTTAMCNEVASLSKKFTNSLTTVGSNKKAEVLNPMISSVLLEGCNSTTYIQDAFQLLLPVLQVSHIQTSCLKAQP
# partner: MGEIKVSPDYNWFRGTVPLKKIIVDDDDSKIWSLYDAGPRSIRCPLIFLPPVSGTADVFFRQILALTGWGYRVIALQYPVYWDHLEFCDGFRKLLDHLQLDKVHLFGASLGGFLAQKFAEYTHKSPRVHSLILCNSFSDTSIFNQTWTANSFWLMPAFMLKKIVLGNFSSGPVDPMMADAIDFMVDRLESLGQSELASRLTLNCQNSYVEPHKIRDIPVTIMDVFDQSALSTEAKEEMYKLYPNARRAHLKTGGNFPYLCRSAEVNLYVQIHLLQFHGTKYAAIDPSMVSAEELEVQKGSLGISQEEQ
# B3: TBC1 domain family member 22B (Homo sapiens), Q9NU19 (parent)
# chain: MAAENSKQFWKRSAKLPGSIQPVYGAQHPPLDPRLTKNFIKERSKVNTVPLKNKKASSFHEFARNTSDAWDIGDDEEEDFSSPSFQTLNSKVALATAAQVLENHSKLRVKPERSQSTTSDVPANYKVIKSSSDAQLSRNSSDTCLRNPLHKQQSLPLRPIIPLVARISDQNASGAPPMTVREKTRLEKFRQLLSSQNTDLDELRKCSWPGVPREVRPITWRLLSGYLPANTERRKLTLQRKREEYFGFIEQYYDSRNEEHHQDTYRQIHIDIPRTNPLIPLFQQPLVQEIFERILFIWAIRHPASGYVQGINDLVTPFFVVFLSEYVEEDVENFDVTNLSQDMLRSIEADSFWCMSKLLDGIQDNYTFAQPGIQKKVKALEELVSRIDEQVHNHFRRYEVEYLQFAFRWMNNLLMRELPLRCTIRLWDTYQSEPEGFSHFHLYVCAAFLIKWRKEILDEEDFQGLLMLLQNLPTIHWGNEEIGLLLAEAYRLKYMFADAPNHYRR
# partner: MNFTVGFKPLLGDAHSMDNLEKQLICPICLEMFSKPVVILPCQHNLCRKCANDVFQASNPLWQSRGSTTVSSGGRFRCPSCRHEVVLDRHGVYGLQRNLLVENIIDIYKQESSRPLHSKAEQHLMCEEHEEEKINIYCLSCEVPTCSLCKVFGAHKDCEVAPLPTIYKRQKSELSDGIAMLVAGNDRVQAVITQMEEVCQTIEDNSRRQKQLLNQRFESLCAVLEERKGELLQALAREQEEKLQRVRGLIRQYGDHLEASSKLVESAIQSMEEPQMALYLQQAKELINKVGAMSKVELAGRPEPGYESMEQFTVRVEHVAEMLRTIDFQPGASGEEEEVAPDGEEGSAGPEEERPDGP
# B4: Intraflagellar transport protein 27 homolog (Homo sapiens), Q9BW83 (parent)
# chain: MVKLAAKCILAGDPAVGKTALAQIFRSDGAHFQKSYTLTTGMDLVVKTVPVPDTGDSVELFIFDSAGKELFSEMLDKLWESPNVLCLVYDVTNEESFNNCSKWLEKARSQAPGISLPGVLVGNKTDLAGRRAVDSAEARAWALGQGLECFETSVKEMENFEAPFHCLAKQFHQLYREKVEVFRALA
# partner: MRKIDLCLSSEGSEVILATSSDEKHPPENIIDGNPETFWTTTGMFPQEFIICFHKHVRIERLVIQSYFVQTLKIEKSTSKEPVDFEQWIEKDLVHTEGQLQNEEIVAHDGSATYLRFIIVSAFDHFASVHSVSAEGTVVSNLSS
# B5: 3-hydroxyanthranilate 3,4-dioxygenase (Homo sapiens), P46952 (parent)
# chain: MERRLGVRAWVKENRGSFQPPVCNKLMHQEQLKVMFIGGPNTRKDYHIEEGEEVFYQLEGDMVLRVLEQGKHRDVVIRQGEIFLLPARVPHSPQRFANTVGLVVERRRLETELDGLRYYVGDTMDVLFEKWFYCKDLGTQLAPIIQEFFSSEQYRTGKPIPDQLLKEPPFPLSTRSIMEPMSLDAWLDSHHRELQAGTPLSLFGDTYETQVIAYGQGSSEGLRQNVDVWLWQLEGSSVVTMGGRRLSLAPDDSLLVLAGTSYAWERTQGSVALSVTQDPACKKPLG
# partner: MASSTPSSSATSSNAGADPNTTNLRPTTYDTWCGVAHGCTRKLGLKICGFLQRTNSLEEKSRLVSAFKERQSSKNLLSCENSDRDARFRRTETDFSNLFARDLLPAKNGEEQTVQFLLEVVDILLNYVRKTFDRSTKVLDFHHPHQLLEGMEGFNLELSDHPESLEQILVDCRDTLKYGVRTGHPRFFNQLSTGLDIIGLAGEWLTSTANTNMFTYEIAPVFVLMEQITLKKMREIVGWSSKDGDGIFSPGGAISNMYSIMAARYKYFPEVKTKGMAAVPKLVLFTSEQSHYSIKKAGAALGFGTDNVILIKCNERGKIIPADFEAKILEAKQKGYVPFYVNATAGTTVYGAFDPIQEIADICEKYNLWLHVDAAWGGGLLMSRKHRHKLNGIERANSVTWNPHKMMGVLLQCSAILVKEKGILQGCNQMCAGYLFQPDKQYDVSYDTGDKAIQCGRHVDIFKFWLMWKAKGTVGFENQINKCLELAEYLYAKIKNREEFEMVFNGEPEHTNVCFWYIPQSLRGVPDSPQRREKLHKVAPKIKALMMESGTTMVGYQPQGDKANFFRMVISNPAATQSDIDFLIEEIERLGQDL
# Variants of: B1
# Conditions: with kxdl1_human KXD1, Q9BQD3
row,effect of a mutation on the interaction,Variant
1,with no effect,A365V
2,with no effect,R480H

# Variants of: B2
# Conditions: with spg21_human SPG21, Q9NZD8
row,effect of a mutation on the interaction,Variant
1,with no effect,S40L

# Variants of: B3
# Conditions: with tri54_human TRIM54, Q9BYV2
row,effect of a mutation on the interaction,Variant
1,with no effect,P177A

# Variants of: B4
# Conditions: with ift25_human IFT25, Q9Y547
row,effect of a mutation on the interaction,Variant
1,disrupting interaction strength,A142V

# Variants of: B5
# Conditions: with dce1_human GAD1, Q99259
row,effect of a mutation on the interaction,Variant
1,with no effect,T42S
